Measurements taken from US20210290732A1, “GLP-1R and GCGR Agonists, Formulations, and Methods of Use” (Spitfire Pharma LLC, priority 2020, published 2021).
Values joined by “and” are separate entries in the source; they are usually repeats but may differ in a detail not shown here. Identical values can stand only once. “Also recorded” adds a separate entry of the source. Positions of bridges follow the written chain, without caps; N, C: chain ends. Non-standard residues stand in square brackets, D forms with d. No end group written: not given here. GC8 = D-glucoside-derived uronic acid with C8 alkyl chain; Aib = CC(C)(N)C(=O)O

Legend:
[1] = in vitro stability in pooled human plasma; details: 1 to 10 μM; GLP-1 7-36 amide at 4 h, analogs at 8 h
Description: The stability test was carried out at Climax Laboratories, Inc. (San Jose, Calif.).

[2] = pharmacokinetics in Gottingen minipigs (cassette sc dosing, 20 nmol/kg); format: in vivo, Gottingen minipig; details: 20 nmol/kg sc
Source text: This study uses a cassette style dosing, to minimize large animal usage, but with injection subcutaneously at separate sites to preclude each compound's influencing uptake of another compound. A total of two male Gottingen minipigs were assigned to study. The animals were pair housed in pens on raised floor caging. The animals weighed between approximately 11-15 kg at transfer and approximately 5-8 months of age. The same animals were to be used for multiple phases, following a minimum 1-week washout period. To facilitate dosing and to ensure animal safety during the dosing procedure, animals were sedated with Telazol (IM, 4-6 mg/kg) prior to dosing. Dosing was subcutaneous via bolus injection between the skin and underlying layers of tissue in the ventral region of the animal. A total of […] sites were used for each phase with different compounds dosed at each of the 4 sites. Compounds are formulated in saline containing 0.2% BSA […] at pH 3.5. Each stock solution was diluted with normal saline (pH 7.4) to the required final conc and sterile filtered. Dosing is at 20 nmol/kg. Blood samples were collected pre-dose and at 2, 4, 6, 8, 12, 24, 36, 48, 72 and 96-hours post-dose. At each blood collection time point a 1 mL sample is taken from the jugular vein into K2EDTA tubes on ice before processing to plasma by centrifugation. The plasma samples containing the 4 test compounds were sent to Climax Labs for separation and quantitation by LC-MS/MS as noted below (2.5.3).
Analysis was carried out at Climax Laboratories (San Jose, Calif.) on an API-4000 Mass Spectrometer, ESI positive, MRM scan. Samples were loaded on a Shimadzu HPLC/CTC Autosampler with an ACE C4 column (2.1×50 mm, 5 μm). Elution was by gradient from aqueous 0.5% formic acid, 5 mM NH4OAc to 0.5% formic acid in CH3CN/H2O (9:1). […] After transfer to a 96 well plate, a 40 μL sample was injected and the individual compound peaks were quantitated with standard curves. […] The quantitation limit is 1-2 ng/mL, depending on analog structure.

human GLP-1R = biological target: T1, human GLP-1R (Homo sapiens, UniProt P43220); experiment: cAMP receptor activation assay, human GLP-1R cloned into CHO cells (DiscoverX LeadHunter / cAMP Hunter); format: cell-based
T1 construct: host or cells: CHO-K1
T1 sequence (P43220 24-463): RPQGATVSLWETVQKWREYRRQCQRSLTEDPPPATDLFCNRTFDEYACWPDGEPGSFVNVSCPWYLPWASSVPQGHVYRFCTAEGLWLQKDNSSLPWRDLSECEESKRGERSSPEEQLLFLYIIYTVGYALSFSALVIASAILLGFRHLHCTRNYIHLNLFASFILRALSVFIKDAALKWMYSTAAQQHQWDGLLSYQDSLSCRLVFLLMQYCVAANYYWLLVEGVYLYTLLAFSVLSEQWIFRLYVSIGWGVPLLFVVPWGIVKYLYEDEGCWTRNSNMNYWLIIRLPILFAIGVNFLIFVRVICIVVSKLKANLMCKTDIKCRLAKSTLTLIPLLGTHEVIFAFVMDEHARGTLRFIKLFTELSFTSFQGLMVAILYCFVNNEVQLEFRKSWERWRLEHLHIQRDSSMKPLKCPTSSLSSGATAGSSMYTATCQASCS
Description: (§1) Cellular assays were carried out using standard cellular assays (DiscoveRx, LeadHunter assays) using readout of cAMP stimulation or arrestin activation. Compounds were weighed precisely in an amount of approximately 1 mg and shipped to DiscoverX (Fremont, Calif.) for dilution and assay. […] Assays were carried out in the presence of 0.1% ovalbumin. […] Use of 0.1% ovalbumin can avoid this problem.
(§2) Assays were carried out in the presence of 0.1% ovalbumin. […] Use of 0.1% ovalbumin can avoid this problem.
(§3) Receptor activation assays were performed at DiscoverX laboratories (Fremont, Calif.) using human GLP-1R and GCGR cloned into Chinese Hamster Ovary (CHO) cells (LeadHunter Discovery Services; assay product 86-0007D cAMP Hunter™ using huGLP1R and huGCGR; whole cell cAMP accumulation assays; cell lines used were cAMP Hunter™ CHO-K1 GCGR Gs Cell Line, catalog 95-0042C2 and cAMP Hunter™ CHO-K1 GLP1 Gs Cell Line, catalog 95-0062C2; readout of accumulated cAMP was made using readout HitHunter cAMP XS+ assay). Cell lines are maintained at DiscoverX and were incubated with test agents for 30 m at 37° C. for accumulation of cAMP. […] Results described herein are from single assays performed on cells in duplicate and data were replotted in Prism 5 to provide pEC50 (SE) data.
(§4) In vitro data are presented as pEC50 (SE) determined in Prism 5 by nonlinear regression analysis of the raw fluorescence data normalized by corresponding response to internal standards (see Supporting Information for data plots).

GCGR = GCGR (Homo sapiens, UniProt P47871); experiment: cAMP receptor activation assay, human GCGR cloned into CHO cells (DiscoverX LeadHunter / cAMP Hunter); format: cell-based; design: host or cells: CHO-K1; details: cAMP, CHO cells, 0.1% BSA containing buffers; read-out: pEC50 (SE) huGCGR (converted)
Description: as §1, §2, §3, §4

[3] = clinical studies, cited from earlier work
[4] = CMC of Polysorbate 20 in F58 buffer pH 7.7 with added ALT-801 by surface tensiometry; format: physicochemical
Source text: CMC shifts are simply calculated as CMC in the presence of the ALT-801 less the CMC for the surfactant alone in solution.

[5] = biological target: bovine serum albumin (BSA) (bovine, UniProt P02769 25-607); experiment: method not stated (data not shown)
Sequence of bovine serum albumin (BSA) (P02769 25-607 limits assumed): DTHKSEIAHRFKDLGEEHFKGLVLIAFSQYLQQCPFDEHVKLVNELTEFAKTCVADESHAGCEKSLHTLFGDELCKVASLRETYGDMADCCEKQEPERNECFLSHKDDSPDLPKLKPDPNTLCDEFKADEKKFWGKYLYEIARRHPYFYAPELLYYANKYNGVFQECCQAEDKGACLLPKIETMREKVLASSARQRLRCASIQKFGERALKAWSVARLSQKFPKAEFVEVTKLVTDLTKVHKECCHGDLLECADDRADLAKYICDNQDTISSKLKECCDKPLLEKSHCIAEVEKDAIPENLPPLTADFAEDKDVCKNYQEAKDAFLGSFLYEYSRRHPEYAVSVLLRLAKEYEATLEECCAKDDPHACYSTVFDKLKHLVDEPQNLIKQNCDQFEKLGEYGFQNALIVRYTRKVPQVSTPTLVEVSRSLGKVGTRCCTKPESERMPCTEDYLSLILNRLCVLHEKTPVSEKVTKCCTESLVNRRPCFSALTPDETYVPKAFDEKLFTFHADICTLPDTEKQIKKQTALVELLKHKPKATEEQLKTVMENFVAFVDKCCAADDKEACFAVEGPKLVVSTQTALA

plasma proteins of human [6] = experiment: ultracentrifugation of spiked plasma (15000 ng/mL), 37 C, 6 h, LC-MS of supernatant; supernatant value BLQ, extrapolated
plasma proteins of dog [7] = experiment: as above
plasma proteins of human [8] = experiment: ultracentrifugation of spiked plasma (15000 ng/mL), 37 C, 6 h, LC-MS of supernatant
[9] = biological target: plasma proteins of monkey; experiment: as above
plasma proteins of rat = experiment: as above
plasma proteins of dog [10] = experiment: as above
[11] = biological target: human glucagon-like peptide 1 receptor (GLP-1R) (human, UniProt P43220 24-463); experiment: cell-based or functional assay
Sequence of human glucagon-like peptide 1 receptor (GLP-1R) (P43220 24-463): as the sequence (P43220 24-463) above

[12] = biological target: human glucagon receptor (GCGR) (human, UniProt P47871 26-477); experiment: cell-based or functional assay

CC[C@H](C)[C@H](NC(=O)[C@H](Cc1ccccc1)NC(=O)[C@H](CCC(=O)O)NC(=O)[C@H](CCCCN)NC(=O)[C@H](C)NC(=O)[C@H](C)NC(=O)[C@H](CCC(N)=O)NC(=O)CNC(=O)[C@H](CCC(=O)O)NC(=O)[C@H](CC(C)C)NC(=O)[C@H](Cc1ccc(O)cc1)NC(=O)[C@H](CO)NC(=O)[C@H](CO)NC(=O)[C@@H](NC(=O)[C@H](CC(=O)O)NC(=O)[C@H](CO)NC(=O)[C@@H](NC(=O)[C@H](Cc1ccccc1)NC(=O)[C@@H](NC(=O)CNC(=O)[C@H](CCC(=O)O)NC(=O)[C@H](C)NC(=O)[C@@H](N)Cc1c[nH]cn1)[C@@H](C)O)[C@@H](C)O)C(C)C)C(=O)N[C@@H](C)C(=O)N[C@@H](Cc1c[nH]c2ccccc12)C(=O)N[C@@H](CC(C)C)C(=O)N[C@H](C(=O)N[C@@H](CCCCN)C(=O)NCC(=O)N[C@@H](CCCNC(=N)N)C(N)=O)C(C)C [GLP-1 7-36 amide]
stability in pooled human plasma (compound level remaining) [1]: rapidly destroyed to below quantitation limit; also recorded: rapid destruction

CCCCCCCCCCCCCCO[C@@H]1O[C@H](C(=O)NCCCC[C@H](NC(=O)[C@@H](NC(=O)[C@H](Cc2ccccc2)NC(=O)[C@H](CCC(=O)O)NC(=O)[C@@H]2CCCCNC(=O)CC[C@H](NC(=O)[C@H](CC(=O)O)NC(=O)[C@H](CC(C)C)NC(=O)[C@H](Cc3ccc(O)cc3)NC(=O)[C@H](CCCCN)NC(=O)[C@H](CO)NC(=O)[C@H](Cc3ccc(O)cc3)NC(=O)[C@H](CC(=O)O)NC(=O)[C@H](CO)NC(=O)[C@@H](NC(=O)[C@H](Cc3ccccc3)NC(=O)[C@@H](NC(=O)CNC(=O)[C@H](CCC(N)=O)NC(=O)C(C)(C)NC(=O)[C@@H](N)Cc3c[nH]cn3)[C@@H](C)O)[C@@H](C)O)C(=O)N[C@@H](CCC(N)=O)C(=O)N[C@@H](C)C(=O)N[C@@H](C)C(=O)N2)[C@@H](C)CC)C(=O)N[C@@H](Cc2c[nH]c3ccccc23)C(=O)N[C@@H](CC(C)C)C(=O)N[C@@H](CC(C)C)C(=O)N[C@@H](CCC(N)=O)C(=O)N[C@H](C(N)=O)[C@@H](C)O)[C@@H](O)[C@H](O)[C@H]1O [analogue 4]
Cmax and PK profiles [2]: optimal
plasma levels compared to liraglutide ([2]; analogue 2 at 4 h, 4 at 2-12 h, 5 at 2, 12, 24 h): Significantly higher plasma levels
Selectivity Ratio GLP-1R vs GCGR (human GLP-1R; SR = GCGR EC50/GLP-1 EC50, 0.1% BSA): 2
EC50 (human GLP-1R; cAMP, CHO cells, 0.1% BSA containing buffers, read-out: pEC50 (SE) hu GLP-1 (converted)): 0.0158 nM
EC50 (GCGR): 0.0302 nM

CCCCCCCCCCCCCCCC(=O)N[C@@H](CCC(=O)NCCCC[C@H](NC(=O)[C@H](CC(=O)O)NC(=O)[C@H](CO)NC(=O)[C@@H](NC(=O)[C@H](Cc1ccccc1)NC(=O)[C@@H](NC(=O)CNC(=O)[C@H](CCC(N)=O)NC(=O)[C@H](CO)NC(=O)[C@@H](N)Cc1c[nH]cn1)[C@@H](C)O)[C@@H](C)O)C(=O)N[C@@H](CO)C(=O)N[C@@H](CCC(=O)O)C(=O)N[C@@H](Cc1ccc(O)cc1)C(=O)N[C@@H](CC(C)C)C(=O)N[C@@H](CC(=O)O)C(=O)N[C@@H](CO)C(=O)N[C@@H](CCC(=O)O)C(=O)N[C@@H](CCCNC(=N)N)C(=O)N[C@@H](C)C(=O)N[C@@H](CCCNC(=N)N)C(=O)N[C@@H](CC(=O)O)C(=O)N[C@@H](Cc1ccccc1)C(=O)N[C@H](C(=O)N[C@@H](C)C(=O)N[C@@H](Cc1c[nH]c2ccccc12)C(=O)N[C@@H](CC(C)C)C(=O)N[C@@H](CCC(=O)O)C(=O)N[C@@H](C)C(=O)NCC(=O)NCC(=O)O)C(C)C)C(=O)O [cotadutide]
reduction in liver fat content ([3]; 6 weeks): 39%
weight loss over 26 weeks [3]: 5.4%

Polysorbate 20
Polysorbate 20 CMC Value, No ALT-801, Average [4]: 0.722 mg/mL
Polysorbate 20 CMC Value, No ALT-801 ([4]; Test # 1 and 2): 0.721 mg/mL and 0.722 mg/mL

B1: EU-A1873 (SEQ ID NO: 1) (peptide)
peptide: HXQGTFTSDYSKYLDEKAAKEFIQWLLQT
modifications: Aib at 2; side chain lactam between Glu16 and Lys20; Lys17 acylated with Z17CO2H / GC18c (1-(17-carboxyheptadecyloxy) beta-D-glucuronyl); C-terminal amide (NH2)
notes: Synthetic 29-residue peptide amide; also called ALT-801; analogue 17
percent bound to BSA [5]: > 99%
Percentage of ALT-801 Bound (plasma proteins of human [6]): 99.9%
Percentage of ALT-801 Unbound (plasma proteins of human [6]): 0.117%
Percentage of ALT-801 Bound (plasma proteins of dog [7]): 99.9%
Percentage of ALT-801 Unbound (plasma proteins of dog [7]): 0.126%
Percentage of ALT-801 Bound (plasma proteins of human [8]): 99.7%
Percentage of ALT-801 Bound, Mean (plasma proteins of human [8]): 99.8%
Percentage of ALT-801 Unbound (plasma proteins of human [8]): 0.309%
Percentage of ALT-801 Unbound, Mean (plasma proteins of human [8]): 0.213%
Percentage of ALT-801 Bound [9]: 100%
Percentage of ALT-801 Bound, Mean [9]: 100%
Percentage of ALT-801 Unbound, Mean [9]: 0.0487%
Percentage of ALT-801 Bound (plasma proteins of rat): 99.7% and 99.8%
Percentage of ALT-801 Bound, Mean (plasma proteins of rat): 99.8%
Percentage of ALT-801 Unbound (plasma proteins of rat): 0.334% and 0.204% and 0.184%
Percentage of ALT-801 Unbound, Mean (plasma proteins of rat): 0.241%
Percentage of ALT-801 Bound (plasma proteins of dog [10]): 99.7% and 99.8%
Percentage of ALT-801 Bound, Mean (plasma proteins of dog [10]): 99.8%
Percentage of ALT-801 Unbound (plasma proteins of dog [10]): 0.265% and 0.223%
Percentage of ALT-801 Unbound, Mean (plasma proteins of dog [10]): 0.205%

H[Aib]QGTFTSDYSKYLDEQAAKEFIK(GC8)WLLQT-NH2 (lactam 16-20) [Analogue 1 (SEQ ID NO: 12)]
EC50 (pM) hGLP-1R, cAMP accumulation, 0.1% BSA [11]: 8 pM
EC50 (pM) hGCGR, cAMP accumulation, 0.1% BSA [12]: 20 pM
